From patent publication US20040001839A1 (published 2004)
Positions count from the first letter of the chain named. No end group written: not given here. *: point of attachment. sulfate = O=S(=O)(O)*

T1: PSGL-1 on KG-1 cells (human, UniProt Q14242 42-412, sulfated tyrosine residues at the N-terminal site)
T1 construct: whole, on cells; results on KG-1 cells, lysates and membrane fractions are written against this molecule; also called CD162; P-Selectin Glycoprotein Ligand-1
T1 sequence (looked up): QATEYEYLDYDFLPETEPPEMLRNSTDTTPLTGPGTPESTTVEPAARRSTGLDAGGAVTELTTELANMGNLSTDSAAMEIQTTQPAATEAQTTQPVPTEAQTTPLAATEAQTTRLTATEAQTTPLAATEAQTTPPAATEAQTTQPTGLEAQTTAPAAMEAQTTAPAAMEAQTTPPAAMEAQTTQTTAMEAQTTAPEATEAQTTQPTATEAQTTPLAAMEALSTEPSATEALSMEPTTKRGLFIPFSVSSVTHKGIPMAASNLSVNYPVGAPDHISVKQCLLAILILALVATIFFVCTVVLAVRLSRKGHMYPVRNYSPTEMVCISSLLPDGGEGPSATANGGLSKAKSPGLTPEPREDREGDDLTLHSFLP

T2: Lumican (human, UniProt P51884 19-338, contains sulfated tyrosine residues)
T2 construct: The ~80 kDa band was identified as CC4 and lumican together; also called human lumican; H P-ligand 2
T2 sequence (looked up): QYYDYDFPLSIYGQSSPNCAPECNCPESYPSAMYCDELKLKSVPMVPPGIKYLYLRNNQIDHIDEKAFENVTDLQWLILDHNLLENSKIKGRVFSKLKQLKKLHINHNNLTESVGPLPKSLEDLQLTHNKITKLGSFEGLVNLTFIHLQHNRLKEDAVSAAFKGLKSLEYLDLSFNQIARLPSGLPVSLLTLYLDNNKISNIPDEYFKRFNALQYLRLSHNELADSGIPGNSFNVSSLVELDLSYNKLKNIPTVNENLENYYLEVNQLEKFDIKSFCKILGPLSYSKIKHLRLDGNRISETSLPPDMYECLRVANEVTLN

B1: P-3-S (peptide)
peptide: GDEGDTDLY(sulfate)DY(sulfate)Y(sulfate)P
notes: also called residues 268-280 of GPIbα, sulfated
B2: F-Y*Y* (peptide)
peptide: VRPEHPAETEY(sulfate)ESLY(sulfate)PEDDL
notes: also called Fibrinogen-γ-prime chain peptide, sulfated
B3: CONY1 (scFv)
scFv: EVQLVESGGGVVRPGGSLRLSCAASGFTFDDYGMSWVRQAPGKGLEWVSGINWNGGSTGYADSVKGRFTISRDNAKNSLYLQMNSLRAEDTAVYYCARMRAPVIWGQGTLVTVSRGGGGSGGGGSGGGGSSELTQDPAVSVALGQTVRITCQGDSLRSYYASWYQQKPGQAPVLVIYGKNNRPSGIPDRFSGSSSGNTASLTITGAQAEDEADYYCNSRDSSGNHVVFGGGTKLTVLGAAAKAK
notes: also called Y1-kak; Y1 scFv monomer
B4: Y1 scFv (scFv)
scFv: EVQLVESGGGVVRPGGSLRLSCAASGFTFDDYGMSWVRQAPGKGLEWVSGINWNGGSTGYADSVKGRFTISRDNAKNSLYLQMNSLRAEDTAVYYCARMRAPVIWGQGTLVTVSRGGGGSGGGGSGGGGSSELTQDPAVSVALGQTVRITCQGDSLRSYYASWYQQKPGQAPVLVIYGKNNRPSGIPDRFSGSSSGNTASLTITGAQAEDEADYYCNSRDSSGNHVVFGGGTKLTVLGAAAEQKLISEEDLNGAA
notes: Fully human scFv from the Nissim I phage library; Used biotin-labelled in most Western blots; also called scFv Y1; scFv-Y1
B5: Y17 scFv (scFv)
scFv: B4 scFv with M99L, R100T, A101H, V103Y, I104F
notes: Human scFv selected on platelets in the same way as Y1; also called biotin labeled-Y17
B6: Y1-cys-kak (cysteine dimer) (other)
scFv 1: MEVQLVESGGGVVRPGGSLRLSCAASGFTFDDYGMSWVRQAPGKGLEWVSGINWNGGSTGYADSVKGRFTISRDNAKNSLYLQMNSLRAEDTAVYYCARMRAPVIWGQGTLVTVSRGGGGSGGGGSGGGGSSELTQDPAVSVALGQTVRITCQGDSLRSYYASWYQQKPGQAPVLVIYGKNNRPSGIPDRFSGSSSGNTASLTITGAQAEDEADYYCNSRDSSGNHVVFGGGTKLTVLGGGGCKAK
scFv 2: B6 scFv 1
modifications: Interchain disulfide between Cys 243 of chain 1 and Cys 243 of chain 2; in the FACS of paragraph 474 the dimer also carried FITC.
notes: also called Y1-cys-kak scFv dimer; S-S Y1 dimer
B7: Y1-IgG (antibody, V domains shown)
VH: EVQLVESGGGVVRPGGSLRLSCAASGFTFDDYGMSWVRQAPGKGLEWVSGINWNGGSTGYADSVKGRFTISRDNAKNSLYLQMNSLRAEDTAVYYCARMRAPVIWGQGTLVTVSR
VL: SELTQDPAVSVALGQTVRITCQGDSLRSYYASWYQQKPGQAPVLVIYGKNNRPSGIPDRFSGSSSGNTASLTITGAQAEDEADYYCNSRDSSGNHVVFGGGTKLTVL
B8: P-2-S (peptide)
peptide: TDLY(sulfate)DY(sulfate)Y(sulfate)PEEDTE
notes: also called residues 273-285 of GPIbα, sulfated
B9: F-YY (peptide)
peptide: VRPEHPAETEYESLYPEDDL
notes: also called Fibrinogen-γ-prime chain peptide, non-sulfated

Experiments:
Y1 scFv [1] = target: B4; assay: competition ELISA: Y1 0.25 µg/well preincubated with peptide at 25 µM, residual binding to glycocalicin
Y1 scFv [2] = target: B4; assay: competition ELISA: Y1 0.25 µg/well preincubated with peptide at 0.5 µM, residual binding to glycocalicin
Y1 scFv [3] = target: B4; assay: competition ELISA: Y1 0.25 µg/well preincubated with peptide at 2.5 µM, residual binding to glycocalicin
Y1 scFv [4] = target: B4; assay: competitive FACS: Y1-scFv 1 µg preincubated with peptide at 2.5 µM, residual binding to washed platelets
Experimental: (§1) In addition, FACS analysis using washed platelets was carried out. […] A polystyrene microtiter maxisorb plate was coated with (a) purified glycocalicin or (b) washed platelets. […] The plate was then incubated with rabbit anti-scFv followed by addition of anti rabbit-HRP (horse radish peroxidase) and HRP substrate. […] The optical density was measured at A₄₀₅. Each sample was assayed in duplicate, and the average was calculated.

Y1 scFv [5] = target: B4; assay: competitive FACS: Y1-scFv 1 µg preincubated with peptide at 200 µM, residual binding to washed platelets
Experimental: as §1

Y1 scFv [6] = target: B4; assay: competition ELISA: peptide (1, 10, 100 µM) preincubated with scFv Y1, binding to immobilized glycocalicin
PSGL-1 on KG-1 cells [7] = target: T1, PSGL-1 on KG-1 cells; assay: second radio receptor binding assay on KG-1 cells, labeled tracer 100 ng/tube
Experimental: (§2) The assay tubes contained 5×10⁶ KG-1 cells per 0.2 ml and a labeled tracer with varying amounts of unlabeled competitor, in PBS+0.1% BSA, pH 7.4. After one hour incubation with agitation at 4° C., the cells were thoroughly washed with cold buffer and taken for radioactivity counting.

Lumican = target: T2, Lumican; assay: Western blot of human plasma proteins
PSGL-1 on KG-1 cells [8] = target: T1, PSGL-1 on KG-1 cells; assay: Western blot of RP-HPLC KG-1 membrane fraction after O-Sialo glycoprotein endopeptidase, 30' at 37° C.
PSGL-1 on KG-1 cells [9] = target: T1, PSGL-1 on KG-1 cells; assay: FACS on KG-1 cells
[10] = target: T3, GPIbα small N-terminal 42 kDa fragment (His1-Leu275) (human, UniProt P07359 17-291); assay: Western blot of cathepsin G digested glycocalicin
T3 construct: also called smaller N-terminal fragment (cathepsin G)
T3 sequence (P07359 17-291 limits assumed): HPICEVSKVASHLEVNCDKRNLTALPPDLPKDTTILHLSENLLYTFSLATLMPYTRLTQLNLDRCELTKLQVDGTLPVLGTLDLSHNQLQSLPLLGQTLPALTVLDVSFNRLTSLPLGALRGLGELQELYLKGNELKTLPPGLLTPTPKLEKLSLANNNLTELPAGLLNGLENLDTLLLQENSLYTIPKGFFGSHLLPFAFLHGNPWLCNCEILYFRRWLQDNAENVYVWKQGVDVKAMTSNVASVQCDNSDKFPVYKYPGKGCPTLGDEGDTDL
Text: Glycocalicin and glycocalicin fragments generated by cathepsin G digestion were separated on SDS-polyacrylamide gels and transferred to nitrocellulose.

PSGL-1 on KG-1 cells [11] = target: T1, PSGL-1 on KG-1 cells; assay: FACS on KG-1 cells, FITC-labeled
PSGL-1 on KG-1 cells [12] = target: T1, PSGL-1 on KG-1 cells; assay: radioreceptor assay, ELISA or FACS; KG-1 cells
PSGL-1 on KG-1 cells [13] = target: T1, PSGL-1 on KG-1 cells; assay: radio receptor assay on KG-1 cells, dimer as competitor
PSGL-1 on KG-1 cells [14] = target: T1, PSGL-1 on KG-1 cells; assay: radio receptor binding assay on KG-1 cells, tracer 125I-Y1-IgG 2 ng/tube
Experimental: as §2

## B1
Y1 scFv [1]
  Residual Binding of Y1 (% of baseline): 21%
Y1 scFv [2]
  Residual Binding of Y1 (% of baseline): 80%
Y1 scFv [3]
  Residual Binding of Y1 (% of baseline): 67%
Y1 scFv [4]
  Residual Binding of Y1 (% of baseline) (Geo Mean): 82%
Y1 scFv [5]
  Residual Binding of Y1 (% of baseline) (Geo Mean): 26%

## B2
Y1 scFv [6]
  binding result: no binding (tested: 100 µM)

## B3
PSGL-1 on KG-1 cells [7]
  Kd: ~1000 nM

## B4
Lumican
  binding result: binds
PSGL-1 on KG-1 cells [8]
  binding result: binds

## B5
PSGL-1 on KG-1 cells [9]
  binding result: binds
[10]
  binding result: no binding

## REEGRQHFFLLEGRSSYS (also called negative control peptide) [EGR]
Y1 scFv [1]
  Residual Binding of Y1 (% of baseline): 89%
Y1 scFv [2]
  Residual Binding of Y1 (% of baseline): 121%
Y1 scFv [3]
  Residual Binding of Y1 (% of baseline): 100%
Y1 scFv [4]
  Residual Binding of Y1 (% of baseline) (Geo Mean): 96%
Y1 scFv [5]
  Residual Binding of Y1 (% of baseline) (Geo Mean): 119%

## B6
PSGL-1 on KG-1 cells [11]
  fold less material than the monomer: 10 fold
PSGL-1 on KG-1 cells [12]
  fold higher binding than the Y1 scFv monomer: ≥ 20 fold
PSGL-1 on KG-1 cells [13]
  fold more efficient than the monomer: 30 fold
PSGL-1 on KG-1 cells [14]
  Kd: ~40 nM
  fold higher affinity than CONY1: 30 fold
  fold lower affinity than the full Y1 antibody: 2 fold
PSGL-1 on KG-1 cells [7]
  Kd: ~50 nM
  fold higher affinity than CONY1: 20 fold

## B7
PSGL-1 on KG-1 cells [14]
  Kd: ~20 nM

## B8
Y1 scFv [1]
  Residual Binding of Y1 (% of baseline): 15%
Y1 scFv [2]
  Residual Binding of Y1 (% of baseline): 78%
Y1 scFv [3]
  Residual Binding of Y1 (% of baseline): 52%
Y1 scFv [4]
  Residual Binding of Y1 (% of baseline) (Geo Mean): 61%
Y1 scFv [5]
  Residual Binding of Y1 (% of baseline) (Geo Mean): 7%

## B9
Y1 scFv [6]
  binding result: no binding (tested: 100 µM)
